In patent publication US20160257748A1 (Amgen, published 2016):

Columns and labels:
[1] = target: T1, Human Epidermal Growth Factor Receptor (HER2) (human, UniProt P04626 23-1255); test: cell-based or functional assay
[2] = target: T1, Human Epidermal Growth Factor Receptor …; test: cell-based or functional assay; remark: listed apart in the source
[3] = target: T1, Human Epidermal Growth Factor Receptor …; test: cell-based or functional assay; remark: listed apart in the source
folate receptor 1 [4] = target: T2, folate receptor 1 (human, UniProt P15328 25-234); test: cell-based or functional assay
[5] = target: T1, Human Epidermal Growth Factor Receptor …; test: FACS titration on T47D cells
folate receptor 1 [6] = target: T2, folate receptor 1; test: cell-based or functional assay; remark: listed apart in the source

T2 sequence (P15328 25-234): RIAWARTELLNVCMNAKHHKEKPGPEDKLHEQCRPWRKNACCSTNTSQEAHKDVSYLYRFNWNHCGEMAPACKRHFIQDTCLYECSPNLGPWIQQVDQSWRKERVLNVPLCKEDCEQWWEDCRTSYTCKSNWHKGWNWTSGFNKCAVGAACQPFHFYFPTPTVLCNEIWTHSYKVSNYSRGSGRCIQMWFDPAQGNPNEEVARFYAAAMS

B1: aHER2-Fc-aCD3 (bispecific antibody)
chain 1: EVQLLEQSGAELVRPGALVKLSCKASGFKIKDYFVNWVKQRPEQGLEWIGWIDPENDNSLYGPNFQDKASITADTSSNTGYLQLSGLTSEDTAVYYCALYYGSRGDAMDYWGQGTTVTVSSASTKGPSVFPLAPSSKSTSGGTAALGCLVKDYFPEPVTVSWNSGALTSGVHTFPAVLQSSGLYSLSSVVTVPSSSLGTQTYICNVNHKPSNTKVDKRVEPKSCDKTHTCPPCPAPEAAGGPSVFLFPPKPKDTLMISRTPEVTCVVVDVSHEDPEVKFNWYVDGVEVHNAKTKPREEQYNSTYRVVSVLTVLHQDWLNGKEYKCKVSNKALPAPIEKTISKAKGQPREPQVYTLPPSRKEMTKNQVSLTCLVKGFYPSDIAVEWESNGQPENNYKTTPPVLKSDGSFFLYSKLTVDKSRWQQGNVFSCSVMHEALHNHYTQKSLSLSPGKAAAGGGGSGGGGSEVQLVESGGGLVQPGGSLKLSCAASGFTFNSYAMNWVRQAPGKGLEWVARIRSKYNNYATYYADSVKGRFTISRDDSKNTAYLQMNNLKTEDTAVYYCVRHGNFGNSYVSWWAYWGQGTLVTVSSASTKGPSVFPLAPSSKSTSGGTAALGCLVKDYFPEPVTVSWNSGALTSGVHTFPAVLQSSGLYSLSSVVTVPSSSLGTQTYICNVNHKPSNTKVDKRVEPKSC
chain 2: not shown
- EC50, T cell dependent cytolysis of JIMT-1 cells [1]: 0.0565 nM
- EC50 (pM), T cell dependent cytolysis of BT474 cells [2]: 638 pM
- EC50 (pM), T cell dependent cytolysis of SKOV-3 cells [2]: 165 pM
- EC50 (pM), % CD25+ T cells (with SKOV-3 cells) [3]: 79.3 pM
- EC50 (pM), % of T cells that are dividing (with SKOV-3 cells) [3]: 76.7 pM

B2: aCD3-Fc-aHER2 (bispecific antibody)
chain 1: EVQLVESGGGLVQPGGSLKLSCAASGFTFNSYAMNWVRQAPGKGLEWVARIRSKYNNYATYYADSVKGRFTISRDDSKNTAYLQMNNLKTEDTAVYYCVRHGNFGNSYVSWWAYWGQGTLVTVSSASTKGPSVFPLAPSSKSTSGGTAALGCLVKDYFPEPVTVSWNSGALTSGVHTFPAVLQSSGLYSLSSVVTVPSSSLGTQTYICNVNHKPSNTKVDKRVEPKSCDKTHTCPPCPAPEAAGGPSVFLFPPKPKDTLMISRTPEVTCVVVDVSHEDPEVKFNWYVDGVEVHNAKTKPREEQYNSTYRVVSVLTVLHQDWLNGKEYKCKVSNKALPAPIEKTISKAKGQPREPQVYTLPPSRKEMTKNQVSLTCLVKGFYPSDIAVEWESNGQPENNYKTTPPVLKSDGSFFLYSKLTVDKSRWQQGNVFSCSVMHEALHNHYTQKSLSLSPGKAAAGGGGSGGGGSEVQLLEQSGAELVRPGALVKLSCKASGFKIKDYFVNWVKQRPEQGLEWIGWIDPENDNSLYGPNFQDKASITADTSSNTGYLQLSGLTSEDTAVYYCALYYGSRGDAMDYWGQGTTVTVSSASTKGPSVFPLAPSSKSTSGGTAALGCLVKDYFPEPVTVSWNSGALTSGVHTFPAVLQSSGLYSLSSVVTVPSSSLGTQTYICNVNHKPSNTKVDKRVEPKSC
chain 2: not shown
- EC50, T cell dependent cytolysis of JIMT-1 cells [1]: 0.0518 nM

B3: aCD3-Fc-aFOLR1 (bispecific antibody)
chain 1: EVQLVESGGGLVQPGGSLKLSCAASGFTFNSYAMNWVRQAPGKGLEWVARIRSKYNNYATYYADSVKGRFTISRDDSKNTAYLQMNNLKTEDTAVYYCVRHGNFGNSYVSWWAYWGQGTLVTVSSASTKGPSVFPLAPSSKSTSGGTAALGCLVKDYFPEPVTVSWNSGALTSGVHTFPAVLQSSGLYSLSSVVTVPSSSLGTQTYICNVNHKPSNTKVDKRVEPKSCDKTHTCPPCPAPEAAGGPSVFLFPPKPKDTLMISRTPEVTCVVVDVSHEDPEVKFNWYVDGVEVHNAKTKPREEQYNSTYRVVSVLTVLHQDWLNGKEYKCKVSNKALPAPIEKTISKAKGQPREPQVYTLPPSRKEMTKNQVSLTCLVKGFYPSDIAVEWESNGQPENNYKTTPPVLKSDGSFFLYSKLTVDKSRWQQGNVFSCSVMHEALHNHYTQKSLSLSPGKAAAGGGGSGGGGSQVQLQESGPGLVKPSQTLSLTCTVSGGSISSGAYYWTWIRQHPGKGLEWIGYIYYSGSTYYNPSLKSRVSISIDTSKNQFSLKLSSVTAADTAVYYCARGSSSWFDYWGQGTLVTVSSASTKGPSVFPLAPSSKSTSGGTAALGCLVKDYFPEPVTVSWNSGALTSGVHTFPAVLQSSGLYSLSSVVTVPSSSLGTQTYICNVNHKPSNTKVDKRVEPKSC
chain 2: not shown
- EC50 (pM), T cell dependent cytolysis of Cal-51 cells (folate receptor 1 [4]): 306 pM

B4: aCD3/HER2 heterodimer (bispecific antibody)
chain 1: EVQLVESGGGLVQPGGSLKLSCAASGFTFNSYAMNWVRQAPGKGLEWVARIRSKYNNYATYYADSVKGRFTISRDDSKNTAYLQMNNLKTEDTAVYYCVRHGNFGNSYVSWWAYWGQGTLVTVSSGGGGSGGGGSELVMTQTPSSLSASLGDRVTISCRASQDISNYLNWYQQKPDGTVKLLIYYTSRLHSGVPSRFSGSGSGTDYSLTISNLEQEDIATYFCQQGNTLPLTFGAGTKLEIKASTKGPSVFPLAPCSRSTSESTAALGCLVKDYFPEPVTVSWNSGALTSGVHTFPAVLQSSGLYSLSSVVTVPSSNFGTQTYTCNVDHKPSNTKVDKTVGGGGSAAAEPKSSDKTHTCPPCPAPEAAGGPSVFLFPPKPKDTLMISRTPEVTCVVVDVSHEDPEVKFNWYVDGVEVHNAKTKPREEQYNSTYRVVSVLTVLHQDWLNGKEYKCKVSNKALPAPIEKTISKAKGQPREPQVYTLPPSREEMTKNQVSLTCLVKGFYPSDIAVEWESNGQPENNYDTTPPVLDSDGSFFLYSDLTVDKSRWQQGNVFSCSVMHEALHNHYTQKSLSLSPGK
chain 2: not shown
notes: also called P136797.3; positive control heterodimeric antibody
- binding result [5]: binds

B5: aFOLR1-Fc-aCD3 (bispecific antibody)
chain 1: QVQLQESGPGLVKPSQTLSLTCTVSGGSISSGAYYWTWIRQHPGKGLEWIGYIYYSGSTYYNPSLKSRVSISIDTSKNQFSLKLSSVTAADTAVYYCARGSSSWFDYWGQGTLVTVSSASTKGPSVFPLAPSSKSTSGGTAALGCLVKDYFPEPVTVSWNSGALTSGVHTFPAVLQSSGLYSLSSVVTVPSSSLGTQTYICNVNHKPSNTKVDKRVEPKSCDKTHTCPPCPAPEAAGGPSVFLFPPKPKDTLMISRTPEVTCVVVDVSHEDPEVKFNWYVDGVEVHNAKTKPREEQYNSTYRVVSVLTVLHQDWLNGKEYKCKVSNKALPAPIEKTISKAKGQPREPQVYTLPPSRKEMTKNQVSLTCLVKGFYPSDIAVEWESNGQPENNYKTTPPVLKSDGSFFLYSKLTVDKSRWQQGNVFSCSVMHEALHNHYTQKSLSLSPGKAAAGGGGSGGGGSEVQLVESGGGLVQPGGSLKLSCAASGFTFNSYAMNWVRQAPGKGLEWVARIRSKYNNYATYYADSVKGRFTISRDDSKNTAYLQMNNLKTEDTAVYYCVRHGNFGNSYVSWWAYWGQGTLVTVSSASTKGPSVFPLAPSSKSTSGGTAALGCLVKDYFPEPVTVSWNSGALTSGVHTFPAVLQSSGLYSLSSVVTVPSSSLGTQTYICNVNHKPSNTKVDKRVEPKSC
chain 2: not shown
- EC50 (concentration for half maximal lysis), T cell dependent cytolysis of Cal-51 cells (folate receptor 1 [6]): 0.114 nM
- EC50 (concentration for half maximal lysis), T cell dependent cytolysis of T47D cells (folate receptor 1 [6]): 0.105 nM
- EC50 (pM), T cell dependent cytolysis of Cal-51 cells (folate receptor 1 [4]): 60.9 pM
